Results taken from PMC11461180, “Interaction with IP6K1 supports pyrophosphorylation of substrate proteins by the inositol pyrophosphate 5-InsP7” (Bioscience Reports, 2024).

Target: V5-tagged IP6K1 (human, UniProt Q92551-1 1-441)
Experiment: cell-based or functional assay

Chain of V5-tagged IP6K1 (Q92551 whole entry): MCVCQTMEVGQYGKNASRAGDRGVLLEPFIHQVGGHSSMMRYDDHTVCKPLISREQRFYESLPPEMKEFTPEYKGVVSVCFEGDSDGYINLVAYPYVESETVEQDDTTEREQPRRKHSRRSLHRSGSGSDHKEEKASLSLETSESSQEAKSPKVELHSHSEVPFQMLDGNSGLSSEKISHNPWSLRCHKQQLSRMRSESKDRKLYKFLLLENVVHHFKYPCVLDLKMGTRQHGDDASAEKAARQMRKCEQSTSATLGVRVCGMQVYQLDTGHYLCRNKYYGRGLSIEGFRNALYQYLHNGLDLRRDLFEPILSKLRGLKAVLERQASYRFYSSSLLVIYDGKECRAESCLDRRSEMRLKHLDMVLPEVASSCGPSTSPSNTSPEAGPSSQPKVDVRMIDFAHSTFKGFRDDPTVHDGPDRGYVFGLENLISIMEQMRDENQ

back-pyrophosphorylation of myc-AP3B1 by 5[β-32P]InsP7 after immunoprecipitation from IP6K1 knockout HEK293T cells co-expressing IP6K1-V5 and HA-CK2α, with SFB-IDR-1 against without: ~2 fold
B1: myc epitope-tagged AP3B1 (natural protein, human, UniProt O00203-1 1-1094, looked up)
chain: MSSNSFPYNEQSGGGEATELGQEATSTISPSGAFGLFSSDLKKNEDLKQMLESNKDSAKLDAMKRIVGMIAKGKNASELFPAVVKNVASKNIEIKKLVYVYLVRYAEEQQDLALLSISTFQRALKDPNQLIRASALRVLSSIRVPIIVPIMMLAIKEASADLSPYVRKNAAHAIQKLYSLDPEQKEMLIEVIEKLLKDKSTLVAGSVVMAFEEVCPDRIDLIHKNYRKLCNLLVDVEEWGQVVIIHMLTRYARTQFVSPWKEGDELEDNGKNFYESDDDQKEKTDKKKKPYTMDPDHRLLIRNTKPLLQSRNAAVVMAVAQLYWHISPKSEAGIISKSLVRLLRSNREVQYIVLQNIATMSIQRKGMFEPYLKSFYVRSTDPTMIKTLKLEILTNLANEANISTLLREFQTYVKSQDKQFAAATIQTIGRCATNILEVTDTCLNGLVCLLSNRDEIVVAESVVVIKKLLQMQPAQHGEIIKHMAKLLDSITVPVARASILWLIGENCERVPKIAPDVLRKMAKSFTSEDDLVKLQILNLGAKLYLTNSKQTKLLTQYILNLGKYDQNYDIRDRTRFIRQLIVPNVKSGALSKYAKKIFLAQKPAPLLESPFKDRDHFQLGTLSHTLNIKATGYLELSNWPEVAPDPSVRNVEVIELAKEWTPAGKAKQENSAKKFYSESEEEEDSSDSSSDSESESGSESGEQGESGEEGDSNEDSSEDSSSEQDSESGRESGLENKRTAKRNSKAKGKSDSEDGEKENEKSKTSDSSNDESSSIEDSSSDSESESEPESESESRRVTKEKEKKTKQDRTPLTKDVSLLDLDDFNPVSTPVALPTPALSPSLMADLEGLHLSTSSSVISVSTPAFVPTKTHVLLHRMSGKGLAAHYFFPRQPCIFGDKMVSIQITLNNTTDRKIENIHIGEKKLPIGMKMHVFNPIDSLEPEGSITVSMGIDFCDSTQTASFQLCTKDDCFNVNIQPPVGELLLPVAMSEKDFKKEQGVLTGMNETSAVIIAAPQNFTPSVIFQKVVNVANVGAVPSGQDNIHRFAAKTVHSGSLMLVTVELKEGSTAQLIINTEKTVIGSVLLRELKPVLSQG
